# ± gives the uncertainty stated by the source.
# Assay: self-splicing fitness, log relative to wild type (ln ratio); higher = more splicing; Tetrahymena group I intron in knt gene, E. coli kanamycin selection, DiMSum; sequences stand for … in CUCUCU…GGAGGGAAAAGUUAUCAGGCAUGCACCUGGUAGCUAGUCUUUAAACCAAUAGAUUGCAUCGGUUUAAAAGGCAAGACCGUCAAAUUGCGGGAAAGGGGUCAACAGCCGUUCAGUACCAAGUCUCAGGGGAAACUUUGAGAUGGCCUUGCAAAGGGUAUGGUAAUAAGCUGACGGACAUGGUCCUAACCACGCAGCCAAGUCCUAAGUCAACAGAUCUUCUGUUGAUAUGGAUGCAGUUCACAGACUAAAUGUCGGUCGGGGAAGAUGUAUUCUUCUCAUAAGAUAUAGUCGGACCUCUCCUUAAUGGGAGCUAGCGGAUGAAGUGAUGCAACACUGGAGCCGCUGGGAACUAAUUUGUAUGCGAAAGUAUAUUGAUUAGUUUUGGAGUACUCGUGGUCG
# Outline: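 Six replicate transformations of E. coli BL21(DE3) with a pET-22b(+) library were grown overnight at 37°C or 30°C. The library randomised all eight P1ex-region intron nucleotides, the intron lying in the knt kanamycin-resistance gene, and plates were LB agar with or without 25 μg/mL kanamycin plus 100 μg/mL carbenicillin, 50 μM IPTG and 0.2% rhamnose. Pooled colonies were amplicon-sequenced on an Illumina HiSeq 2500, and fitness is the DiMSum error-weighted combination of wild-type-normalised replicate fold changes, kanamycin versus none.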
Sequence,self-splicing fitness (ln) (30 °C),self-splicing fitness (ln) (37 °C)
UCCGAGCAAUAUUACGAACG,-1.82 ± 0.37,-1.06 ± 0.22
UCCGAGCAAUAUUACGAAGC,,-1.15 ± 0.36
UCCGAGCAAUAUUACGAAGU,,-1.4 ± 0.29
UCCGAGCAAUAUUACGACGA,-0.666 ± 0.086,0.401 ± 0.11
UCCGAGCAAUAUUACGAGCA,-1.02 ± 0.1,-0.767 ± 0.097
UCCGAGCAAUAUUACGAGCG,-3.16 ± 0.18,-2.47 ± 0.24
UCCGAGCAAUAUUACGAUCU,-3.46 ± 0.35,-2.61 ± 0.39
UCCGAGCAAUAUUACGCGAA,-2.94 ± 0.4,-1.84 ± 0.4
UCCGAGCAAUAUUACGCGCG,-2.28 ± 0.15,-3.28 ± 0.43
UCCGAGCAAUAUUACGCUUA,-2.39 ± 0.41,-2.47 ± 0.39
UCCGAGCAAUAUUACGGAUU,-3.52 ± 0.29,-2.45 ± 0.26
UCCGAGCAAUAUUACGGUCA,-0.946 ± 0.067,-0.671 ± 0.057
UCCGAGCAAUAUUACGGUCG,-3.68 ± 0.47,-2 ± 0.45
UCCGAGCAAUAUUACGUAAU,-4.41 ± 0.28,-1.88 ± 0.18
UCCGAGCAAUAUUACGUAGG,-2.69 ± 0.16,-2 ± 0.25
UCCGAGCAAUAUUACGUAUG,-2.36 ± 0.17,-2.67 ± 0.24
UCCGAGCAAUAUUACGUCGG,-2.97 ± 0.44,-1.86 ± 0.35
UCCGAGCAAUAUUACGUCGU,-2.21 ± 0.16,-1.53 ± 0.18
UCCGAGCAAUAUUACGUGAU,-4.03 ± 0.4,-1.91 ± 0.41
UCCGAGCAAUAUUACGUGGC,-3.27 ± 0.24,-2.52 ± 0.33
UCCGAGCAAUAUUACGUUUU,-3.83 ± 0.25,-0.687 ± 0.15
UCCUAGCAAUAUUACGAAAA,-2.7 ± 0.43,
UCCUAGCAAUAUUACGAUUA,,-3.41 ± 0.46
UCCUAGCAAUAUUACGCACC,-2.95 ± 0.32,-1.62 ± 0.25
UCCUAGCAAUAUUACGCAGG,-1.8 ± 0.46,-2.88 ± 0.37

Sequence,self-splicing fitness (ln) (30 °C),self-splicing fitness (ln) (37 °C)
UCCUAGCAAUAUUACGCCUG,-2.87 ± 0.39,-2.57 ± 0.46
UCCUAGCAAUAUUACGCGAA,-2.24 ± 0.22,-1.67 ± 0.17
UCCUAGCAAUAUUACGCGCU,-2.24 ± 0.14,-2.73 ± 0.23
UCCUAGCAAUAUUACGCUAG,-3.47 ± 0.44,
UCCUAGCAAUAUUACGCUAU,-2.89 ± 0.21,-2.43 ± 0.27
UCCUAGCAAUAUUACGCUUU,,-1.85 ± 0.29
UCCUAGCAAUAUUACGGAAC,,-2.69 ± 0.24
UCCUAGCAAUAUUACGGACU,-3.59 ± 0.24,-2.39 ± 0.22
UCCUAGCAAUAUUACGGCAC,,-2.14 ± 0.24
UCCUAGCAAUAUUACGGCUG,-3.67 ± 0.39,-1.37 ± 0.47
UCCUAGCAAUAUUACGGGCA,-0.22 ± 0.085,0.2 ± 0.097
UCCUAGCAAUAUUACGGGUC,-3.81 ± 0.22,-2.71 ± 0.28
UCCUAGCAAUAUUACGGUCC,-2.63 ± 0.24,
UCCUAGCAAUAUUACGUAUA,-3.53 ± 0.28,-2.03 ± 0.16
UCCUAGCAAUAUUACGUCGU,-2.3 ± 0.13,-0.732 ± 0.13
UCCUAGCAAUAUUACGUGUC,-3.06 ± 0.34,-2.71 ± 0.38
UCGAAGCAAUAUUACGACCG,-0.853 ± 0.12,-0.898 ± 0.14
UCGAAGCAAUAUUACGACGC,0.247 ± 0.19,-0.514 ± 0.2
UCGAAGCAAUAUUACGACGU,-0.755 ± 0.1,-0.205 ± 0.099
UCGAAGCAAUAUUACGAGAA,-1.94 ± 0.41,-1.23 ± 0.3
UCGAAGCAAUAUUACGAGUA,-2.08 ± 0.14,-0.398 ± 0.12
UCGAAGCAAUAUUACGAGUG,-1.56 ± 0.1,-1.52 ± 0.15
UCGAAGCAAUAUUACGAUCG,-1.25 ± 0.099,-0.609 ± 0.12
UCGAAGCAAUAUUACGCAGU,-0.00368 ± 0.23,-0.973 ± 0.47
UCGAAGCAAUAUUACGCCAU,-3.42 ± 0.32,-2.52 ± 0.48

Sequence,self-splicing fitness (ln) (30 °C),self-splicing fitness (ln) (37 °C)
UCGAAGCAAUAUUACGCCCG,-1.33 ± 0.16,-0.864 ± 0.17
UCGAAGCAAUAUUACGCGUA,-1.46 ± 0.15,-1.19 ± 0.13
UCGAAGCAAUAUUACGCUCU,,-1.36 ± 0.34
UCGAAGCAAUAUUACGCUUA,-2.28 ± 0.28,-3.61 ± 0.37
UCGAAGCAAUAUUACGCUUU,-4.08 ± 0.3,-2.94 ± 0.35
UCGAAGCAAUAUUACGGACA,-0.385 ± 0.15,-0.235 ± 0.23
UCGAAGCAAUAUUACGGAGC,,-1.75 ± 0.33
UCGAAGCAAUAUUACGGAGG,-2.79 ± 0.32,-1.82 ± 0.41
UCGAAGCAAUAUUACGGAUA,-1.08 ± 0.15,-1.15 ± 0.19
UCGAAGCAAUAUUACGGGAA,-2.02 ± 0.12,-0.804 ± 0.11
UCGAAGCAAUAUUACGGGAU,-3.98 ± 0.31,-3.17 ± 0.32
UCGAAGCAAUAUUACGUAUC,-3.96 ± 0.35,
UCGAAGCAAUAUUACGUAUU,-2.99 ± 0.18,-3.17 ± 0.31
UCGAAGCAAUAUUACGUCUG,-0.0903 ± 0.069,-0.194 ± 0.077
UCGAAGCAAUAUUACGUGUG,-1.43 ± 0.061,-0.757 ± 0.073
UCGAAGCAAUAUUACGUUAG,-1.25 ± 0.1,-1.35 ± 0.13
UCGCAGCAAUAUUACGAACA,-1.65 ± 0.12,0.339 ± 0.13
UCGCAGCAAUAUUACGAAUA,-2.57 ± 0.22,-1.74 ± 0.16
UCGCAGCAAUAUUACGAGCA,-1.25 ± 0.23,-0.449 ± 0.27
UCGCAGCAAUAUUACGAGCU,-3.14 ± 0.39,-2.22 ± 0.26
UCGCAGCAAUAUUACGAUGU,-2.15 ± 0.18,-2.31 ± 0.28
UCGCAGCAAUAUUACGAUUU,-3.55 ± 0.34,-2.24 ± 0.17
UCGCAGCAAUAUUACGCAAA,-2.05 ± 0.13,-1.53 ± 0.11
UCGCAGCAAUAUUACGCCCU,-1.18 ± 0.13,-0.902 ± 0.15
UCGCAGCAAUAUUACGCCGG,-2.67 ± 0.22,-1.76 ± 0.38

Sequence,self-splicing fitness (ln) (30 °C),self-splicing fitness (ln) (37 °C)
UCGCAGCAAUAUUACGGCCU,-0.665 ± 0.057,0.148 ± 0.076
UCGCAGCAAUAUUACGGCGC,-1.87 ± 0.12,-0.971 ± 0.17
UCGCAGCAAUAUUACGGGAU,-3.64 ± 0.25,-2.3 ± 0.18
UCGCAGCAAUAUUACGGGUA,-1.78 ± 0.071,-1.08 ± 0.052
UCGCAGCAAUAUUACGGUCU,-3.22 ± 0.2,-1.13 ± 0.12
UCGCAGCAAUAUUACGGUGC,-4.1 ± 0.24,-1.62 ± 0.15
UCGCAGCAAUAUUACGUAAG,-1.4 ± 0.099,-1.12 ± 0.11
UCGCAGCAAUAUUACGUUCG,-0.961 ± 0.088,-0.562 ± 0.094
UCGGAGCAAUAUUACGACUG,-1.59 ± 0.31,0.217 ± 0.17
UCGGAGCAAUAUUACGCUGA,-2.56 ± 0.29,-2.16 ± 0.2
UCGGAGCAAUAUUACGGAGG,-3.68 ± 0.46,-1.98 ± 0.34
UCGGAGCAAUAUUACGGCGU,-1.82 ± 0.22,-0.847 ± 0.16
UCGGAGCAAUAUUACGGGGU,-3.57 ± 0.29,
UCGGAGCAAUAUUACGGUCA,-0.984 ± 0.18,
UCGGAGCAAUAUUACGGUGG,-3.35 ± 0.12,-2.01 ± 0.16
UCGGAGCAAUAUUACGUGAG,-1.65 ± 0.096,-1.01 ± 0.12
UCGGAGCAAUAUUACGUGCU,,-2.66 ± 0.27
UCGGAGCAAUAUUACGUUAA,-2.69 ± 0.31,-2.78 ± 0.32
UCGUAGCAAUAUUACGAAAA,-2.3 ± 0.36,-1.77 ± 0.46
UCGUAGCAAUAUUACGAAAU,-3.8 ± 0.33,-1.65 ± 0.26
UCGUAGCAAUAUUACGACCG,-1.23 ± 0.18,-0.438 ± 0.34
UCGUAGCAAUAUUACGAGCG,-0.988 ± 0.14,-1.13 ± 0.21
UCGUAGCAAUAUUACGCACA,-2.52 ± 0.21,-1.7 ± 0.2
UCGUAGCAAUAUUACGCAUA,-1.57 ± 0.16,-1.34 ± 0.21
UCGUAGCAAUAUUACGCCAA,-3.89 ± 0.3,-1.4 ± 0.17

# — the supplement of paper PMC7877785
